Data: paper PMC4691284

Target: Fer F-BAR domain (human) (UniProt P16591)
Assay: AUC

Sequence of Fer F-BAR domain (P16591 1-264): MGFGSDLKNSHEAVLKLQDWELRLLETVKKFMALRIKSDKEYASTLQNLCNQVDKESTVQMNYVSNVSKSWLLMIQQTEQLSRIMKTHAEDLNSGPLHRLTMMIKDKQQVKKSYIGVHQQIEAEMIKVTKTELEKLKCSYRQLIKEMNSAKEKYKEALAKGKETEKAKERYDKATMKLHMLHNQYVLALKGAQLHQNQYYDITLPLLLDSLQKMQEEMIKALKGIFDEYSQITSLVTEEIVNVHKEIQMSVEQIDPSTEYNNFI

- stoichiometry N: 2 dimers
Substance: Fer F-BAR domain (from UniProt P16591 1-259) (domain or fragment)
